This note sets out measurements from article PMC10397247.

Where two headings read alike, the source gives them in different places.

The target in experiment [1] is T1, 4H1985-bH.
T1 chain: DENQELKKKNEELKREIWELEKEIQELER
Nature of the experiment: two-hybrid library CCNG1.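 Note: natural log of median RNA to DNA barcode read ratio; higher means stronger binding.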

Experiment [2] addresses T2, 4H3129-bH.
T2 chain: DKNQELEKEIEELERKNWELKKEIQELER
Nature of the experiment: two-hybrid library CCNG1.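 Note: natural log of median RNA to DNA barcode read ratio; higher means stronger binding.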

Experiment [3] has as its target T3, 4H3162-bH.
T3 chain: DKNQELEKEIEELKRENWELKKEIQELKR
The experiment in a line: two-hybrid library CCNG1.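 Note: natural log of median RNA to DNA barcode read ratio; higher means stronger binding.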

In experiment [4] the target is T4, 4H3172-bH.
T4 chain: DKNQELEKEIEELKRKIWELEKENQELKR
The experiment in a line: two-hybrid library CCNG1.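 Note: natural log of median RNA to DNA barcode read ratio; higher means stronger binding.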

For experiment [5], the target named is T5, 4H3175-bH.
T5 chain: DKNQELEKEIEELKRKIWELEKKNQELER
The experiment in a line: two-hybrid library CCNG1.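 Note: natural log of median RNA to DNA barcode read ratio; higher means stronger binding.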

Experiment [6] addresses T6, 4H3277-bH.
T6 chain: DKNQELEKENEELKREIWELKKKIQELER
Nature of the experiment: two-hybrid library CCNG1.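 Note: natural log of median RNA to DNA barcode read ratio; higher means stronger binding.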

The target of experiment [7] is T7, 4H3298-bH.
T7 chain: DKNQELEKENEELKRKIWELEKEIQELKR
Nature of the experiment: two-hybrid library CCNG1.

In experiment [8] the target is T8, 4H3414-bH.
T8 chain: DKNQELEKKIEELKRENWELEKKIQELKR
Nature of the experiment: two-hybrid library CCNG1.

Experiment [9] deals with T9, 4H3462-bH.
T9 chain: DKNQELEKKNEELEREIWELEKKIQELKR
The experiment in a line: two-hybrid library CCNG1.

Experiment [10] has as its target T10, 4H3497-bH.
T10 chain: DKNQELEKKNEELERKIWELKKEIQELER
Nature of the experiment: two-hybrid library CCNG1.

Experiment [11] addresses T11, 4H3613-bH.
T11 chain: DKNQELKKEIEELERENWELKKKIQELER
The experiment in a line: two-hybrid library CCNG1.

The target of experiment [12] is T12, 4H3628-bH.
T12 chain: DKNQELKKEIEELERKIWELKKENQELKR
Nature of the experiment: two-hybrid library CCNG1.

For experiment [13], the target named is T13, 4H3631-bH.
T13 chain: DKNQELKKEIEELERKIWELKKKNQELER
Nature of the experiment: two-hybrid library CCNG1.

The target in experiment [14] is T14, 4H3638-bH.
T14 chain: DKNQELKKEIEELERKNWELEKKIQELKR
Nature of the experiment: two-hybrid library CCNG1.

The target in experiment [15] is T15, 4H3817-bH.
T15 chain: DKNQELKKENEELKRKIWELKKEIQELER
Nature of the experiment: two-hybrid library CCNG1.

For experiment [16], the target named is T16, 4H3858-bH.
T16 chain: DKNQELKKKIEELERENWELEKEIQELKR
The experiment in a line: two-hybrid library CCNG1.

Experiment [17] addresses T17, 4H3926-bH.
T17 chain: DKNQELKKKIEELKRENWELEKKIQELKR
Nature of the experiment: two-hybrid library CCNG1.

Experiment [18] deals with T18, 4H3974-bH.
T18 chain: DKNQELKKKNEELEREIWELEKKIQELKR
The experiment in a line: two-hybrid library CCNG1.

Experiment [19] deals with T19, 4H570-bH.
T19 chain: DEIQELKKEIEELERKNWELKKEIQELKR
The experiment in a line: two-hybrid library CCNG1.

The target in experiment [20] is T20, 4H584-bH.
T20 chain: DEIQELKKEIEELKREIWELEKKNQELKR
The experiment in a line: two-hybrid library CCNG1.

In experiment [21] the target is T21, 4H591-bH.
T21 chain: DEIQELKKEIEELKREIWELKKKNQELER
Nature of the experiment: two-hybrid library CCNG1.

Experiment [22] addresses T22, 4H619-bH.
T22 chain: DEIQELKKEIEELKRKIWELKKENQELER
Nature of the experiment: two-hybrid library CCNG1.

Experiment [23] deals with T23, 4H626-bH.
T23 chain: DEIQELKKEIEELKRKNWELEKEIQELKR
Nature of the experiment: two-hybrid library CCNG1.

In experiment [24] the target is T24, 4H72-bH.
T24 chain: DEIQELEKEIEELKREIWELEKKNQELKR
The experiment in a line: two-hybrid library CCNG1.

Experiment [25] addresses T25, 4H850-bH.
T25 chain: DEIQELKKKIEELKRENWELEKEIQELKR
Nature of the experiment: two-hybrid library CCNG1.

Experiment [26] addresses T26, 4H906-bH.
T26 chain: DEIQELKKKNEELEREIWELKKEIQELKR
Nature of the experiment: two-hybrid library CCNG1.

Experiment [27] has as its target T27, AP2-AA.
T27 chain: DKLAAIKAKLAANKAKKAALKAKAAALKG
The experiment in a line: two-hybrid library CCmax.

The target of experiment [28] is T28, AP3-AA.
T28 chain: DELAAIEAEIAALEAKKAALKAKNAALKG
The experiment in a line: two-hybrid library CCmax.

Experiment [29] addresses T29, AP4-AA.
T29 chain: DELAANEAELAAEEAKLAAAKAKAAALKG
Nature of the experiment: two-hybrid library CCmax. To be noted: mean of both orientations.

Experiment [30] concerns the target T30, AP5-AA.
T30 chain: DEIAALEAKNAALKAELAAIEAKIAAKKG
Nature of the experiment: two-hybrid library CCmax. To be noted: mean of both orientations.

Experiment [31] concerns the target T31, AP6-AA.
T31 chain: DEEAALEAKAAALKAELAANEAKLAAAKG
The experiment in a line: two-hybrid library CCmax. To be noted: mean of both orientations.

Experiment [32] addresses T32, AP7-AA.
T32 chain: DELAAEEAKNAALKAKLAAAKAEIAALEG
The experiment in a line: two-hybrid library CCmax.

The target of experiment [33] is T33, AP8-AA.
T33 chain: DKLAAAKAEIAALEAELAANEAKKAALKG
Nature of the experiment: two-hybrid library CCmax. To be noted: mean of both orientations.

The target in experiment [34] is GCN2_T. The experiment in a line: two-hybrid library CCmax.
In experiment [35] the target is T34, P1-AA.
T34 chain: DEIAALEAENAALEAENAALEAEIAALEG
The experiment in a line: two-hybrid library CCmax. To be noted: mean of both orientations.

Experiment [36] has as its target T35, P10-AA.
T35 chain: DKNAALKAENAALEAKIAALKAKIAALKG
Nature of the experiment: two-hybrid library CCmax. To be noted: mean of both orientations.

For experiment [37], the target named is T36, P11-AA.
T36 chain: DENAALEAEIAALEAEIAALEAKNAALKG
Nature of the experiment: two-hybrid library CCmax. To be noted: mean of both orientations.

Experiment [38] has as its target T37, P12-AA.
T37 chain: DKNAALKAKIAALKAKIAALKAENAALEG
The experiment in a line: two-hybrid library CCmax. To be noted: mean of both orientations.

In experiment [39] the target is T38, P2-AA.
T38 chain: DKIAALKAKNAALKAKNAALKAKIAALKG
Nature of the experiment: two-hybrid library CCmax. To be noted: mean of both orientations.

Experiment [40] concerns the target T39, P3-AA.
T39 chain: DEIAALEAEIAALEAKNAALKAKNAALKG
The experiment in a line: two-hybrid library CCmax. To be noted: mean of both orientations.

Experiment [41] addresses T40, P4-AA.
T40 chain: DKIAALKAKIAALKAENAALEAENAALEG
The experiment in a line: two-hybrid library CCmax. To be noted: mean of both orientations.

The target in experiment [42] is T41, P7-AA.
T41 chain: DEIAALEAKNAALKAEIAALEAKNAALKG
The experiment in a line: two-hybrid library CCmax. To be noted: mean of both orientations.

In experiment [43] the target is T42, P8-AA.
T42 chain: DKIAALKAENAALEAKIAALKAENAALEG
Nature of the experiment: two-hybrid library CCmax. To be noted: mean of both orientations.

The target of experiment [44] is T43, P9-AA.
T43 chain: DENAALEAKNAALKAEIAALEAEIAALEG
The experiment in a line: two-hybrid library CCmax. To be noted: mean of both orientations.

Experiment [45] addresses T44, 4H1899-bH.
T44 chain: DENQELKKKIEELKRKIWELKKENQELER
The experiment in a line: two-hybrid library CCNG1.

For experiment [46], the target named is T45, 4H3628-bN.
T45 chain: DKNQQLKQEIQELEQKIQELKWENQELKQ
The experiment in a line: two-hybrid library CCNG1.

The target of experiment [47] is T46, 4H607-bH.
T46 chain: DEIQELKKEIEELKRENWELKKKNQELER
Nature of the experiment: two-hybrid library CCNG1.

Take DENQELKKKNEELKREIWELEKEIQELER [4H1985-bH]: the interaction score in experiment [1] is -2.13; in experiment [2], -0.549; in [3], -1.36; in experiment [4] it was -1.84; in experiment [5], -0.853; in experiment [6], -0.449. Also, the interaction score in experiment [7] was -0.821; in experiment [8] it was -0.255; in [9], -0.482; in experiment [10], -0.884; in experiment [11], -1.08; in [12], -0.631. Moreover, the interaction score is 0.015 in [13]; -0.17 in experiment [14]; -0.0213 in experiment [15]; -1.02 in experiment [16]; -0.572 in experiment [17]; 0.0704 in experiment [18]. Further, the interaction score in [19] is -0.979; in [20], -1.1; in experiment [21], -1.01; in experiment [22] it was -1.32; in experiment [23] it was -2.1; in [24], -0.781. Further, the interaction score in [25] was -0.707; in [26], -0.874.
Regarding DKLAAIKAKLAANKAKKAALKAKAAALKG [AP2-AA], the interaction score is -2.11 in [27]; -2.09 in experiment [28] (mean of both orientations); -1.62 in experiment [29]; -1.24 in experiment [30]; -1.74 in experiment [31]; -1.6 in experiment [32]. Moreover, the interaction score in experiment [33] is -1.71; in experiment [34] it was -1.81; in experiment [35], 0.511; in [36], -1.76; in experiment [37], -0.526; in experiment [38], -1.59. The interaction score is -1.94 in experiment [39]; -1.95 in experiment [40]; -1.83 in experiment [41]; -1.75 in experiment [42]; -1.86 in [43]; -1.65 in experiment [44].
As for DELAAIEAEIAALEAKKAALKAKNAALKG [AP3-AA], the interaction score in experiment [28] is 0.89; in experiment [29], -1.84; in [30], -1.45; in experiment [31], -1.78; in [32] (mean of both orientations) it was -1.93; in experiment [33], -1.48. Further, the interaction score in [34] was -1.8; in experiment [35], -2.22; in experiment [36], -0.602; in [37] it was -1.01; in experiment [38] it was -1.03; in experiment [39] it was -1.75. Further, the interaction score was -1.84 in experiment [40]; 1.61 in experiment [41]; -1.23 in experiment [42]; -1.45 in experiment [43]; -1.41 in [44].
For the molecule DENQELKKKIEELKRKIWELKKENQELER [4H1899-bH], the interaction score in experiment [45] was 0.337; in experiment [1], 1.05; in experiment [3], -0.289; in experiment [5], 0.0491; in experiment [6], -0.392; in [7], -0.203. Besides, the interaction score in experiment [8] was -0.169; in [9], 0.0285; in experiment [10], 0.766; in experiment [11], -0.355; in experiment [12] it was 1.19; in [46], 0.735. For the same molecule, the interaction score in [15] was 0.356; in experiment [16] it was -0.0187; in [17] it was -0.236; in experiment [18], 0.298; in experiment [19], -1.69; in [21], -0.968. In addition, the interaction score in experiment [23] is -1.98; in experiment [25] it was -0.44; in [26], -0.666.
In the case of DKNQELEKEIEELKRENWELKKEIQELKR [4H3162-bH], the interaction score in experiment [3] is 0.549; in [5] it was -1.88; in experiment [6], -0.247; in experiment [7], -0.633; in [9] it was -0.66; in experiment [10], -0.619. Also, the interaction score in experiment [11] is 0.334; in experiment [12], -1.68; in experiment [17] it was 1.52; in experiment [21], -0.636; in [47] it was -2.63; in experiment [23] it was -1.98. For the same molecule, the interaction score in experiment [26] was -0.0502.
